Experimental data taken from paper PMC5422525.

Tests used:
[1] = biological target: Escherichia coli ClpX (E. coli) (UniProt P0A6H1)
[2] = biological target: Caulobacter crescentus ClpX (C. crescentus) (UniProt B8GX14)
Sequence of UniProt B8GX14 (B8GX14 whole entry): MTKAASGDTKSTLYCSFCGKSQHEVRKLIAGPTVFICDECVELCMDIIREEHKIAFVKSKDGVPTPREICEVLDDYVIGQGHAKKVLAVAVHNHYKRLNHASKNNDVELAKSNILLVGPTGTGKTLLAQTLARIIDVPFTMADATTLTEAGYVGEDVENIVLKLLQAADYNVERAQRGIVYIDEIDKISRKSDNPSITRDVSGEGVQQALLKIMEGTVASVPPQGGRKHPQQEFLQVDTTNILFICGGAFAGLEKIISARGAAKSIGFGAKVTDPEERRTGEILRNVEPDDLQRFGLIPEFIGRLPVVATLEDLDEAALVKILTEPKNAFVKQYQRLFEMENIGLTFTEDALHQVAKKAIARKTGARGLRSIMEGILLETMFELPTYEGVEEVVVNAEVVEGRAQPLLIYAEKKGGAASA

Sequence of UniProt P0A6H1 (P0A6H1 whole entry): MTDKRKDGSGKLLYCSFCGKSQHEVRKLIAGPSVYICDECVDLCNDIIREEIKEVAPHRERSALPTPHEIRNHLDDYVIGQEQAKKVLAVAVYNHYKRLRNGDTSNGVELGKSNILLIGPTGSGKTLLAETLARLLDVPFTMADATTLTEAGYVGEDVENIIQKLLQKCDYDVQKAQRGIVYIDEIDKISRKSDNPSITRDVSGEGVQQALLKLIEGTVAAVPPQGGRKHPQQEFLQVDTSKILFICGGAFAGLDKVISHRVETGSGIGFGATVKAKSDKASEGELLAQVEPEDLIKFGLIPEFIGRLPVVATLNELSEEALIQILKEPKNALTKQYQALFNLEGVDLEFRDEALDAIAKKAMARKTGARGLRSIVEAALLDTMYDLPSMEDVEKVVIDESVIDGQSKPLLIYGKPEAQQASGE

K (activation): degradation of 1 uM GFP-ssrA by 50 nM ClpX6 with varying concentrations of ClpP14, initial rates fitted to a first-order binding equation [1] [nM]	K (activation): degradation of 1 uM GFP-ssrA by 50 nM ClpX6 with varying concentrations of ClpP14, initial rates fitted to a first-order binding equation [2] [nM]	Substance
12.1	9.1	Caulobacter crescentus ClpP (from UniProt B8GX16 1-209) (enzyme)
24.1	–	Escherichia coli ClpP (from UniProt P0A6G7 15-207) (enzyme)
